Reference: publication PMC7156744, “CdbA is a DNA-binding protein and c-di-GMP receptor important for nucleoid organization and segregation in Myxococcus xanthus” (Nature Communications, 2020)
Residue numbers refer to the chain shown, from its start.

Assays:
[1] = molecular target: T1, CdbA R27A/R30A-His6 R78A;R81A (Myxococcus xanthus DK1622) (UniProt Q1D489); test: EMSA; conditions: 10x buffer: 380 mM HEPES, 380 mM NaCl, 50 mM MgCl2, 50% glycerol, 10 mM DTT, 15 ng/ul poly(dI-dC), 50 ng probe, 30 C 30 min, 10% PAGE 1x TBE 4 C, pH not …
T1 sequence: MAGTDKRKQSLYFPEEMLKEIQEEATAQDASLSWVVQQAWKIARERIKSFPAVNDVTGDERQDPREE

[2] = molecular target: T2, CdbA K8A/S10A-His6 K59A;S61A (Myxococcus xanthus DK1622) (UniProt Q1D489); test: EMSA; conditions: 10x buffer: 380 mM HEPES, 380 mM NaCl, 50 mM MgCl2, 50% glycerol, 10 mM DTT, 15 ng/ul poly(dI-dC), 50 ng probe, 30 C 30 min, 10% PAGE 1x TBE 4 C, pH not …
T2 sequence: T1 sequence with K8A, S10A, A27R, A30R

ACTTGGGTCTCCGGGGCGGATTCGGGGTGACGACCTGAACACACCTGGGCCGTTATCCGACAGACTCCCAAGTGGGTCAACGGTTTCCAAGGACTCATTCCGAGGTCGCACGGTCCGTCCCCGTGCTCGTCCAGTTGCACGTAAGCTGTGCAACCATGCGCGAAAAAGGAAACGCCCCGGACTCCACGAGGAAGTCCGGGGCGCTTCGGAAAGAGGGACCGCCTAGAGAAATCTCCAGGCGGGCCCGTGG (double strand) [cdbAB promoter]
binding [1]: no binding | binding [2]: no binding
